From paper PMC2898518

What was measured:
p53 wild-type [1] = molecular target: T1, p53 wild-type (UniProt P04637 1-393); experiment: EMSA
p53 wild-type [2] = molecular target: T1, p53 wild-type; experiment: filter binding

T1 sequence (P04637 whole entry): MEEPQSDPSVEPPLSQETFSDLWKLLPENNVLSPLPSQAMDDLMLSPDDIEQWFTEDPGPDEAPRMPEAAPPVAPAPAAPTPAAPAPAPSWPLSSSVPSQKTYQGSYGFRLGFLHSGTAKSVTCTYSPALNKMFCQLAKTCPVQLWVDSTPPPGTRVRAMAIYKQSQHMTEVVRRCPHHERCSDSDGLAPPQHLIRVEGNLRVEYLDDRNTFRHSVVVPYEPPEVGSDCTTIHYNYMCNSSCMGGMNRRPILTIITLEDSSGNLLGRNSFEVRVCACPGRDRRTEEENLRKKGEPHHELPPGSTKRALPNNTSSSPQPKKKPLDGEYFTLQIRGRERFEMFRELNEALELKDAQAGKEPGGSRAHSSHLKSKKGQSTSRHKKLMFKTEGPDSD

Binder	binding signal (p53 wild-type [1])	binding signal (p53 wild-type [2])
66-bp circular wild-type GADD45 (dsDNA) DNA 1: AGCTGATATCGAATTCTCGAGCAGAACATGTCTAAGCATGCTGGGCTCGAGAATTCCTGCAGCGCT DNA 2: AGCGCTGCAGGAATTCTCGAGCCCAGCATGCTTAGACATGTTCTGCTCGAGAATTCGATATCAGCT	1 fold (reference)	
66-bp circular mutant GADD45 (dsDNA) DNA 1: AGCTGATATCGAATTCTCGAGCAGAAAATTTCTAAGAATTCTGGGCTCGAGAATTCCTGCAGCGCT DNA 2: AGCGCTGCAGGAATTCTCGAGCCCAGAATTCTTAGAAATTTTCTGCTCGAGAATTCGATATCAGCT	1 fold (reference)	
p21 site 32-mer (dsDNA) DNA 1: TAGAGCGAACATGTCCCAACATGTTGGCGTCG DNA 2: CGACGCCAACATGTTGGGACATGTTCGCTCTA		1 fold (reference)
